T1: human IL-36R (IL1RL2) on primary human cells (human) (UniProt Q9HB29)
T1 sequence (looked up): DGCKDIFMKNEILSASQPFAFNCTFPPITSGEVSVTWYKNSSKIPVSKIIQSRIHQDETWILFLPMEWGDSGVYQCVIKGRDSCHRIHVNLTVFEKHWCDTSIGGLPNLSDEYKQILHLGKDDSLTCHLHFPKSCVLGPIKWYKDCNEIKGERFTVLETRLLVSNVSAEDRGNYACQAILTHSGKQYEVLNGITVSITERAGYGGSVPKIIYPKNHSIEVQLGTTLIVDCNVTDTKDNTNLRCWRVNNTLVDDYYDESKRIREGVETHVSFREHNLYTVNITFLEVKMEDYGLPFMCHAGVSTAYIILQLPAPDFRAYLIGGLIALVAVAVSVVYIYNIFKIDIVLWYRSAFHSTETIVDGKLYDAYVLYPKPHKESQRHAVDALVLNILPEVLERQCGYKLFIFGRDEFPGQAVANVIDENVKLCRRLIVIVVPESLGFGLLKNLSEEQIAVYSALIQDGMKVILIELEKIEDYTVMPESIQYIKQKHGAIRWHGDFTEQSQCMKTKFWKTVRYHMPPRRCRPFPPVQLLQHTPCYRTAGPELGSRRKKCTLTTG

B1: H4H14700P2 (antibody, human IgG4 S228P, kappa, V domains shown)
VH: EVQLVESGGGLVQPGRSLRLSCAASGFTFDDYAMHWVRQTPGKGLEWVSVISWNSDVIAYSDSVKGRFTISRDNAKNSLYLQMNSLGTEDTALYYCAKGHNWNFFDYWGQGTLVTVSS
VL: EIVLTQSPATLSLSPGERATLSCRASQSVSSYLAWYQQKPGQAPRLLIYNVANRATDIPARFSGSGSGTDFTLTISGLEPEDFAVYFCQQRSNWPLTFGGGTKVEIKR
B2: H4H14708P2 (antibody, human IgG4 S228P, kappa, V domains shown)
VH: B1 VH with G10D, T40A, G87R, A97T, N101K, N103S
VL: B1 VL with V29I, Y49F, G77S, F87Y
B3: H4H14728P (antibody, human IgG4 S228P, kappa, V domains shown)
VH: QVQLQESGPGLVKPSQTLSLTCTVSGGSISSADYYWSWIRQHPGKGLEWIGSIYYTGSTYYNPSLKSRLTISIDTSENQFSLKLTSLTAADTAVYYCASEEANWGSHFDSWGQGTLVTVSS
VL: DIQMTQSPSSLSASVGDRVTITCRASQSIDNFLNWYQQKPGKAPKLLIYAASSLQSGVPSRFSGSGSGTDFTLTISSLQPEDFASYYCQHSHSAHPITFGQGTRLEIKR
B4: H4H14731P (antibody, human IgG4 S228P, kappa, V domains shown)
VH: QLQLQESGPGLVKPSETLSLTCTVSGGSISSSNYYWGWIRQPPGKRLEWIGSIYYSGSTYYNPSLKTRVTISVDTSKNQFSLKLTSVTAADTAVYYCAREEAAALTHFDFWGQGTLVTVSS
VL: B3 VL with D30S, F32Y, Y49F, S85T, A94S
B5: H4H14709P (antibody, human IgG4 S228P, kappa, V domains shown)
VH: EVQLVESGGGLVQPGGSLRLSCAASGFTFSDYAMSWVRQAPGKGLEWVSGISGNGGDTYYGDFVKGRFTISRDNSKNTLYLQMNSLRGEDTAAYFCVIDLDYWGQGTLVTVSS
VL: DIQMTQSPSTLSASEGDRVTITCRASQSISSWLAWYQQKPGKAPRLLIYKASILGDGVPSRFSGSGSGTEFTLTISSLQPDDFATYYCHQYNSYLWTFGQGTKVEIKR
B6: H4H14757P (antibody, human IgG4 S228P, kappa, V domains shown)
VH: EVQLVESGGGLVQPGRSLRLSCTASGFTFDDYAMHWVRQAPGKGLEWVSGIRWNGGSIGYVDSVKGRFTISRDNAKKSLHLQMNSLKTEDTALYYCAKDIGDILTGFYGEYGMDVWGQGTTVTVSS
VL: DIQMTQSPSSLSASEGDRVTITCRASQSISSYLNWYQQKAGKAPNLLIYAASSLQSGVPSRFSGSGSGTEYTLTISSLQPEDFATYYCQQSYIIPYTFGQGTKLEIKR
B7: H4H14758P (antibody, human IgG4 S228P, kappa, V domains shown)
VH: EVQLVESGGGLVQPGRSLRLSCAASGFTFDDYAMHWVRQAPGKGLEWVSSVRWNGGIIGYADSVKGRFTISRDNAKNSLYLQMNSLRPEDTALYYCAKDIGDVLTGYYGEYGMDVWGQGTTVTVSS
VL: B6 VL with E15V, T22A, S30T, S31T, A40P, N45K, E70D, Y71F, I94S
B8: rhIL-36β/IL-1F8 [aa5-157] (ligand, human, UniProt Q9NZH7 5-157, looked up)
chain: REAAPKSYAIRDSRQMVWVLSGNSLIAAPLSRSIKPVTLHLIACRDTEFSDKEKGNMVYLGIKGKDLCLFCAEIQGKPTLQLKLQGSQDNIGKDTCWKLVGIHTCINLDVRESCFMGTLDQWGIGVGRKKWKSSFQHHHLRKKDKDFSSMRTN

Data on eight molecules can be found in patent US20200017592A1.

In general, koff refers to the first-order rate constant of dissociation. A high value points to fast dissociation. What is called t½ is the time in which the quantity being followed falls by half. Low readings indicate rapid decline, high ones slow decline. Usually Kd stands for the equilibrium constant for the complex coming apart. Low readings indicate higher affinity, high ones lower affinity. One may read the kon as the second-order rate constant of association.

Positions count from the first letter of the chain named.

One assay concerns the target Macaca fascicularis IL-36R extracellular domain expressed with a C-terminal myc-myc-hexahistidine tag (Macaca fascicularis). The experiment in a line: SPR Biacore T200, mAb captured by anti-hFc, 37C, PBS-T pH 7.4.
As to B1, the 100 nM mfIL-36R-MMH Bound (RU) was 108 RU, the koff amounted to 0.0018 s⁻¹ and the t½ was determined as 6 min.
Molecule B2 yielded a 100 nM mfIL-36R-MMH Bound (RU) of 66 RU, a koff of 0.00169 s⁻¹ and a t½ of 7 min.
B3 had a 100 nM mfIL-36R-MMH Bound (RU) of 98 RU, a koff of 0.00139 s⁻¹ and a t½ of 8 min.
B4 showed a 100 nM mfIL-36R-MMH Bound (RU) of 43 RU, a koff of 0.00361 s⁻¹ and a t½ of 3 min.
In the same order, the values of B5 are 92 RU, 0.000987 s⁻¹ and 12 min.
Regarding B6, the 100 nM mfIL-36R-MMH Bound (RU) is 0 RU.
The molecule B7 displayed a 100 nM mfIL-36R-MMH Bound (RU) of 0 RU.

The target of another assay is T1, human IL-36R (IL1RL2) on primary human cells (human). The experiment in a line: cell-based or functional assay.
Molecule B8 displayed an EC50[M], IL-8 production, Intestinal MyoFibroblasts (InMyoFib), hIL-36β of 1.18e-09 M; an EC50[M], IL-8 production, Normal Epidermal Keratinocytes (NHEK), hIL-36β of 1.18e-09 M; an EC50[M], IL-8 production, PB-derived CD14+ Monocytes, hIL-36β of 2.63e-09 M.

A further assay has as its target Macaca fascicularis IL-36R extracellular domain expressed with a C-terminal myc-myc-hexahistidine tag (Macaca fascicularis). The experiment in a line: SPR Biacore T200, mAb captured by anti-hFc, 25C, PBS-T pH 7.4. For orientation: In SPR one partner is held on a chip, and binding of the other changes the refractive index at the surface.
Molecule B1 returned a 100 nM mfIL-36R-MMH Bound (RU) of 91 RU, an off-rate constant (koff) of 0.000821 s⁻¹ and a t½ of 14 min.
The corresponding values for B2 are 57 RU, 0.000752 s⁻¹ and 15 min.
The corresponding values for B3 are 74 RU, 0.000544 s⁻¹ and 21 min.
In the same order, the values of B4 are 36 RU, 0.00137 s⁻¹ and 8 min.
Regarding B5, the 100 nM mfIL-36R-MMH Bound (RU) was found to be 57 RU, the koff is 0.000519 s⁻¹ and the t½ is 22 min.
Regarding B6, the 100 nM mfIL-36R-MMH Bound (RU) worked out at 1 RU.
Regarding B7, the 100 nM mfIL-36R-MMH Bound (RU) worked out at 0 RU.

Another assay shares this target. The assay can be described thus: SPR Biacore T200, mAb captured by anti-hFc, 25C, PBS-T pH 6.0.
B1 had a 100 nM mfIL-36R-MMH Bound (RU) of 80 RU, a koff of 0.00171 s⁻¹ and a t½ of 7 min.
In the same order, the values of B2 are 47 RU, 0.0015 s⁻¹ and 8 min.
In the same order, the values of B3 are 68 RU, 0.000616 s⁻¹ and 19 min.
On to B4, for which the 100 nM mfIL-36R-MMH Bound (RU) came to 23 RU, the koff was 0.00152 s⁻¹ and the t½ was 8 min.
Regarding B5, the 100 nM mfIL-36R-MMH Bound (RU) stood at 48 RU, the dissociation rate constant (koff) worked out at 0.00112 s⁻¹ and the t½ was determined as 10 min.
B6 gave a 100 nM mfIL-36R-MMH Bound (RU) of 1 RU.
Still for that read-out and setting: with B7 the figure was 1 RU.

The target is the same in a further assay. The experiment in a line: SPR (Biacore 4000), mAb captured on anti-human Fc, 25°C.
B1 came in with a 100 nM mfIL-36R-MMH Bound (RU) of 48 RU, a dissociation constant Kd of 10.6 nM, a koff of 0.000635 s⁻¹ and a kon of 60200 M⁻¹ s⁻¹. For the same molecule, the t½ is 18 min.
In the same order, the values of B2 are 51 RU, 12.9 nM, 0.000579 s⁻¹, 45000 M⁻¹ s⁻¹ and 20 min.
As to B3, the 100 nM mfIL-36R-MMH Bound (RU) was 51 RU, the dissociation constant Kd came to 7.87 nM, the off-rate (koff) worked out at 0.000406 s⁻¹ and the on-rate constant (kon) stood at 51500 M⁻¹ s⁻¹. The molecule also came in with a t½ of 28 min.
In turn, B4 displayed a 100 nM mfIL-36R-MMH Bound (RU) of 33 RU, an equilibrium dissociation constant (Kd) of 15.9 nM, a koff of 0.000951 s⁻¹ and a kon of 59800 M⁻¹ s⁻¹. The molecule further had a t½ of 12 min.
In the same order, the values of B5 are 34 RU, 14.3 nM, 0.000401 s⁻¹, 28000 M⁻¹ s⁻¹ and 29 min.
B6: the 100 nM mfIL-36R-MMH Bound (RU) was found to be 1 RU.
For the molecule B7, the 100 nM mfIL-36R-MMH Bound (RU) was -1 RU.

Another assay addresses Macaca fascicularis IL-36R extracellular domain expressed with a C-terminal myc-myc-hexahistidine tag (mfIL-36R-MMH) (Macaca fascicularis). The assay can be described thus: SPR Biacore 4000, mAb captured on anti-hFc, 37C.
Molecule B1 had a 100 nM mfIL-36R-MMH Bound (RU) of 67 RU, a Kd of 27.8 nM, a dissociation rate constant (koff) of 0.00198 s⁻¹ and a kon of 71400 M⁻¹ s⁻¹. For the same molecule, the t1/2 came to 6 min.
Take B2: the 100 nM mfIL-36R-MMH Bound (RU) came out at 75 RU, the dissociation constant Kd is 30.4 nM, the koff came out at 0.00181 s⁻¹ and the association rate constant (kon) amounted to 59600 M⁻¹ s⁻¹. The molecule further gave a t1/2 of 6 min.
Turning to B3, the 100 nM mfIL-36R-MMH Bound (RU) was found to be 77 RU, the dissociation constant Kd came to 20.7 nM, the off-rate (koff) came out at 0.00134 s⁻¹ and the kon amounted to 64800 M⁻¹ s⁻¹. For the same molecule, the t1/2 turned out to be 9 min.
Molecule B4 showed a 100 nM mfIL-36R-MMH Bound (RU) of 41 RU, a dissociation constant Kd of 48.2 nM, a koff of 0.00322 s⁻¹ and a kon of 66800 M⁻¹ s⁻¹. The same molecule came in with a t1/2 of 4 min.
In the same order, the values of B5 are 66 RU, 17.7 nM, 0.000871 s⁻¹, 49100 M⁻¹ s⁻¹ and 13 min.
As to B6, the 100 nM mfIL-36R-MMH Bound (RU) is 4 RU.
Consider B7, for which the 100 nM mfIL-36R-MMH Bound (RU) was -1 RU.

Another assay concerns the target Macaca fascicularis IL-36R extracellular domain expressed with a C-terminal myc-myc-hexahistidine tag (Macaca fascicularis). The experiment in a line: SPR Biacore T200, mAb captured by anti-hFc, 37C, PBS-T pH 6.0.
Take B1: the 100 nM mfIL-36R-MMH Bound (RU) is 97 RU, the koff came out at 0.00333 s⁻¹ and the t½ was 3 min.
B2: the 100 nM mfIL-36R-MMH Bound (RU) amounted to 58 RU, the koff turned out to be 0.0031 s⁻¹ and the t½ was determined as 4 min.
In the same order, the values of B3 are 91 RU, 0.00191 s⁻¹ and 6 min.
The molecule B4 registered a 100 nM mfIL-36R-MMH Bound (RU) of 40 RU, a dissociation rate constant (koff) of 0.00538 s⁻¹ and a t½ of 2 min.
The corresponding values for B5 are 80 RU, 0.00294 s⁻¹ and 4 min.
Consider B6, for which the 100 nM mfIL-36R-MMH Bound (RU) was -1 RU.
Same read-out and setting: in the case of B7 it was 1 RU.
